Experimental findings from paper PMC7491320, “Pdc2/Pat1 increases the range of decay factors and RNA bound by the Lsm1–7 complex” are described below.

For series [1], the target named is T1, PatMC (Pat1/Pdc2 middle and C-terminal domains);Lsm1-7 complex (Schizosaccharomyces …, UniProt O42958;P87173;O94408;Q9Y7M4;O14352;O42978;Q9UUI1;O74499 …, |). The experiment in a line: SEC-MALS; stoichiometric RNA; dimeric and tetrameric assemblies; FP: 200 mM NaCl, 20 mM HEPES pH 7.0, 1 mM DTT, 5 mM MgCl2, 0.3 ug/uL acetylated BSA, 500 pM 5'-FAM RNA, 22 C. The settings on record: protein: recombinant;recombinant; tags: none stated in coexpressed complex;N-terminal His6-TEV on Lsm1, TEV-treated; copies: 1;1;1;1;1;1;1;1. (SEC sorts molecules by how far they enter the pores of the column.)

In series [2] the target is T2, Lsm1-7 complex (Schizosaccharomyces pombe, UniProt P87173;O94408;Q9Y7M4;O14352;O42978;Q9UUI1;O74499 …). The experiment in a line: SEC-MALS; monomeric complex; FP: 200 mM NaCl, 20 mM HEPES pH 7.0, 1 mM DTT, 5 mM MgCl2, 0.3 ug/uL acetylated BSA, 500 pM 5'-FAM RNA, 22 C. The conditions noted are these: protein: recombinant; tags: N-terminal His6-TEV on Lsm1, TEV-treated; copies: 1;1;1;1;1;1;1.

The target in series [3] is T1, PatMC (Pat1/Pdc2 middle and C-terminal …). The experiment in a line: fluorescence polarization; 5 mM Mg2+; Hill ~1; affinity not affected by PatMC; FP: 200 mM NaCl, 20 mM HEPES pH 7.0, 1 mM DTT, 5 mM MgCl2, 0.3 ug/uL acetylated BSA, 500 pM 5'-FAM RNA, 22 C. The conditions noted are these: protein: recombinant;recombinant; tags: none stated in coexpressed complex;N-terminal His6-TEV on Lsm1, TEV-treated; copies: 1;1;1;1;1;1;1;1; label: 5'-FAM. (In general: Fluorescence polarisation rises when a labelled molecule tumbles more slowly, as on binding a larger partner.)

Series [4] concerns the target T2, Lsm1-7 complex. The experiment in a line: fluorescence polarization; 5 mM Mg2+; strongly favored; FP: 200 mM NaCl, 20 mM HEPES pH 7.0, 1 mM DTT, 5 mM MgCl2, 0.3 ug/uL acetylated BSA, 500 pM 5'-FAM RNA, 22 C. The conditions noted are these: protein: recombinant; tags: N-terminal His6-TEV on Lsm1, TEV-treated; copies: 1;1;1;1;1;1;1; label: 5'-FAM.

Turning to UUUUUUUUUUUUUUU (ssRNA) [U15 (SEC-MALS)], the binding result (in series [1]; with Lsm1-7 complex [2]) was “binds” each time.

UUUUUUUUUUUUUUU (ssRNA) [U15 (FAM)]: the binding result (in series [3]; with Lsm1-7 complex [4]) was “binds” throughout.
